Experimental data reported in patent US20200002710A1, “SYSTEMS AND METHODS FOR CONTROL OF GENE EXPRESSION” (TRUSTEES OF BOSTON UNIVERSITY, published 2020).

What was measured:
[1] = system: 43-8 low affinity synTF + 3x syntrophin PDZ clamp (artificial); experiment: FP; details: nH 2.55; synTF titration with 3-PDZ clamp
[2] = target: T1, 43-8 (ZF1) high affinity synTF (artificial); experiment: FP; fluorescence anisotropy competition; Zn2+, 25 C; details: tags: N-terminal MBP; C-terminal GS linker + syntrophin ligand S5 (VKESLV)
T1 chain: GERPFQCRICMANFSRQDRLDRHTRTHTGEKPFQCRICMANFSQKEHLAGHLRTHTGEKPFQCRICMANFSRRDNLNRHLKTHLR
Protocol: (§1) Sequences for both sets of DBM affinity variants are listed on the right. Residues mutated from the WT sequence are indicated by bold type.
(§2) All assays were conducted in 20 mM Tris, pH 7.5, 100 mM […], 50 μM ZnCl2 buffer at 25° C. Proteins, probes, and competitor oligos were added to a final volume of 300 μL. Probes were used at 10 nM in all experiments. For complex assembly experiments (FIG. 1C), indicated concentrations of MBP-ZF₄₃₋₈ harboring a VSKESLV* ligand (SEQ ID NO: 120) (see e.g., FIG. 5A-FIG. 5B, FIG. 7A-FIG. 7B) were titrated against 5 μM concentrations of clamp. Mixtures were allowed to equilibrate at 25° C. for 10 min in Costar black 96-well plates prior to reading. Fluorescence anisotropy (FA) measurements were made at 494 nm using a SpectraMax M5 (Molecular Devices) fluorescence plate reader. For all measurements, anisotropy (r) was calculated using the following equation, wherein I_{∥} and I_{⊥} are parallel and perpendicular fluorescence, respectively:
(§3) TF-DBM binding constants were measured in vitro by fluorescence anisotropy (FA). Recombinant proteins were purified and DBM oligos prepared as described herein. […] Affinities for the interaction were measured as a function of the increase in fluorescence anisotropy resulting from binding of the fusion to a fluorescently labeled (FITC) oligo probe (data not shown). Oligo probe binding to ZF affinity variants was measured. MBP-ZF was titrated against 10 nM oligo probe. […] Kd values were extracted by fitting data to a quadratic binding equation (data not shown). Competition binding experiments were performed to measure binding constants for DBM affinity variants.

[3] = target: T2, 43-8 (ZF1) low affinity synTF (artificial, R-to-A backbone (low affinity allele, already in ref)); experiment: as above; details: tags: N-terminal MBP; C-terminal GS linker + syntrophin ligand S5 (VKESLV)
T2 chain: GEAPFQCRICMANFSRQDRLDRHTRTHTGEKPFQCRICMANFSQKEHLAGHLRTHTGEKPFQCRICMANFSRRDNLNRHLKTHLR
Protocol: as §1, §2, §3

[4] = target: T3, MBP-erb. (MBP fusion of the erbin PDZ domain) (Mus musculus (Mouse), UniProt Q80TH2 1304-1387, limits assumed); experiment: fluorescence anisotropy competition; 43-8 synTF-ligand fusion titrated against MBP-erbin PDZ and FITC peptide probe
T3 construct: also called MBP-PDZ; pCB425
T3 chain: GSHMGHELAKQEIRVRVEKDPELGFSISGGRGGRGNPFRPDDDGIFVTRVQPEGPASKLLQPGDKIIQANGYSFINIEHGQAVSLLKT
Protocol: (§4) Probe concentration was assessed by measuring Abs490. Competitor peptides were purified as MBP-ZF43-8 fusions (see e.g., FIG. 5A-FIG. 5B, FIG. 7A-FIG. 7B).
as §2
(§5) PDZ-ligand binding constants were measured in vitro by fluorescence anisotropy. Recombinant proteins were purified as described herein. […] Peptide probe binding to PDZ domain was measured. […] Kₐ values were extracted by fitting data to a quadratic binding equation (data not shown). Competition binding experiments were conducted to measure binding constants for ligand affinity variants. […] accompanying displacement of the probe by the competitor was measured, and competitor ligand Kd values were extracted by fitting data (converted to fraction probe bound) to a cubic equation describing competitive binding (see e.g., FIG. 7A).

[5] = target: T4, MBP-syn. (MBP fusion of the syntrophin PDZ domain) (Oryctolagus cuniculus (Rabbit), UniProt Q28626 83-177); experiment: fluorescence anisotropy competition; 43-8 synTF-ligand fusion titrated against MBP-syntrophin PDZ and FITC-VKESLV probe
T4 construct: Used as an MBP fusion in the PDZ-ligand anisotropy assays; also called MBP-PDZ; pCB378
T4 sequence: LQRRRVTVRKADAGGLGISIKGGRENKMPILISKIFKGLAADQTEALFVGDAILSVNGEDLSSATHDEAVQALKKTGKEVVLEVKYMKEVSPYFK
Protocol: as §4, §2, §5

[6] = target: T5, MBP-syn. (MBP fusion of the syntrophin PDZ domain) (UniProt Q28626 83-177); experiment: thermodynamic model fit; model-fitted
T5 chain: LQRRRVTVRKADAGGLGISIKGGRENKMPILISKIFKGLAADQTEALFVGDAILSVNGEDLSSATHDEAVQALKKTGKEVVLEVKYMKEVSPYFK

[7] = target: T4, MBP-syn. (MBP fusion of the syntrophin …); experiment: fluorescence anisotropy competition (nb indicates no binding)
Protocol: as §4, §2, §5

[8] = target: T3, MBP-erb. (MBP fusion of the erbin PDZ …); experiment: as above
Protocol: as §4, §2, §5

[9] = target: T5, MBP-syn. (MBP fusion of the syntrophin …); experiment: fluorescence anisotropy competition; experimentally-measured
[10] = target: T6, 42-10 (ZF2) low affinity synTF (artificial, R-to-A backbone (low affinity allele, already in ref)); experiment: FP; fluorescence anisotropy competition; Zn2+, 25 C; details: tags: N-terminal MBP; C-terminal GS linker + syntrophin ligand S5 (VKESLV)
T6 chain: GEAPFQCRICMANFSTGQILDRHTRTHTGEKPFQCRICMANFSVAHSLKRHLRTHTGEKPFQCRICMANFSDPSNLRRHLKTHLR
Protocol: as §1, §2, §3

[11] = target: T7, 42-10 (ZF2) high affinity synTF (artificial); experiment: FP; fluorescence anisotropy competition; 20 mM Tris pH 7.5, 100 mM NaCl, 50 uM ZnCl2, 25 C; details: tags: N-terminal MBP; C-terminal GS linker + syntrophin ligand S5 (VKESLV)
T7 chain: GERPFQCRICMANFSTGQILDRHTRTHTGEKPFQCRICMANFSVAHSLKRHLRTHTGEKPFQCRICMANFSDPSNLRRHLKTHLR
Protocol: as §1, §2
TF-DBM binding constants were measured in vitro by fluorescence anisotropy (FA). Recombinant proteins were purified and DBM oligos prepared as described herein. […] Affinities for the interaction were measured as a function of the increase in fluorescence anisotropy resulting from binding of the fusion to a fluorescently labeled (FITC) oligo probe (data not shown). Oligo probe binding to ZF affinity variants was measured. […]

[12] = target: T2, 43-8 (ZF1) low affinity synTF; experiment: FP; no clamp; nH 1.07; details: tags: N-terminal MBP; C-terminal GS linker + syntrophin ligand S5 (VKESLV); label: fluorescein on bottom-strand thymidine
Protocol: as §2, with “respectively: […]” for “respectively:”

For “GAATTCGTCCTCACTCTTCGGTCCTCACTCTTCGGTCCTCACTCTGGATCC (double strand) [43-8 nc=3 probe]”, the EC50 [1] was 5.1 nM.

B1: 43-8 DBM3 (dsDNA)
DNA 1: ATAGTGAGGAC
DNA 2: GTCCTCACTAT
For B1, the Kd [2] was 42 nM and the Kd [3] was 224 nM.

B2: MBP-43-8(low)-syn. lig. (S4) (other, not shown: large carriers)
chain: GEAPFQCRICMANFSRQDRLDRHTRTHTGEKPFQCRICMANFSQKEHLAGHLRTHTGEKPFQCRICMANFSRRDNLNRHLKTHLRGSGSGIRETIV
notes: also called IRETIV; pCB384
B2 showed a Kd [4] of 3460 nM, a Kd [5] of 880 nM and a Kd [6] of 400 nM.

B3: 43-8 synTF with appended erbin ligand E2 (WLKTWV) (other, not shown: large carriers)
chain: GEAPFQCRICMANFSRQDRLDRHTRTHTGEKPFQCRICMANFSQKEHLAGHLRTHTGEKPFQCRICMANFSRRDNLNRHLKTHLRGSGSGWLKTWV
For B3, the Kd [4] was 330 nM and the binding result [7] was “no binding”.

B4: MBP-43-8(low)-syn. lig.(no bind) (other, not shown: large carriers; small tags and cut ends)
chain: GEAPFQCRICMANFSRQDRLDRHTRTHTGEKPFQCRICMANFSQKEHLAGHLRTHTGEKPFQCRICMANFSRRDNLNRHLKTHLRGSGSGVKEAAA
notes: also called VKEAAA; nb
B4: no binding [8].

B5: MBP-43-8(low)-syn. lig. (S5) (other, not shown: large carriers)
chain: GEAPFQCRICMANFSRQDRLDRHTRTHTGEKPFQCRICMANFSQKEHLAGHLRTHTGEKPFQCRICMANFSRRDNLNRHLKTHLRGSGSGVKESLV
notes: also called VKESLV; pCB385
B5 gave a Kd [4] of 5710 nM, a Kd [5] of 1970 nM and a Kd [6] of 2050 nM.

B6: MBP-43-8(low)-syn. lig. (S3) (other, not shown: large carriers)
chain: GEAPFQCRICMANFSRQDRLDRHTRTHTGEKPFQCRICMANFSQKEHLAGHLRTHTGEKPFQCRICMANFSRRDNLNRHLKTHLRGSGSGIRWTIV
notes: also called IRWTIV; pCB382
For B6, the Kd [4] was 1730 nM and the Kd [5] was 490 nM.

B7: MBP-43-8(low)-syn. lig. (S7) (other, not shown: large carriers)
chain: GEAPFQCRICMANFSRQDRLDRHTRTHTGEKPFQCRICMANFSQKEHLAGHLRTHTGEKPFQCRICMANFSRRDNLNRHLKTHLRGSGSGHLETFF
notes: also called HLETFF; pCB387
For B7, the binding result [8] was “no binding” and the Kd [5] was 43200 nM.

B8: MBP-43-8(low)-syn. lig. (S1) (other, not shown: large carriers)
chain: GEAPFQCRICMANFSRQDRLDRHTRTHTGEKPFQCRICMANFSQKEHLAGHLRTHTGEKPFQCRICMANFSRRDNLNRHLKTHLRGSGSGIRETII
notes: also called IRETII; pCB380
B8 was tested, and the binding result [8] was “no binding” and the Kd [5] was 62 nM.

B9: 43-8 synTF with appended erbin ligand E3 (PVDSWV) (other, not shown: large carriers)
chain: GEAPFQCRICMANFSRQDRLDRHTRTHTGEKPFQCRICMANFSQKEHLAGHLRTHTGEKPFQCRICMANFSRRDNLNRHLKTHLRGSGSGPVDSWV
With B9 the Kd [4] was 420 nM and the Kd [5] was 1570 nM.

B10: MBP-43-8(low)-syn. lig. (S6) (other, not shown: large carriers)
chain: GEAPFQCRICMANFSRQDRLDRHTRTHTGEKPFQCRICMANFSQKEHLAGHLRTHTGEKPFQCRICMANFSRRDNLNRHLKTHLRGSGSGVKEALV
notes: also called VKEALV; pCB386
In the case of B10, the binding result [8] is reported as “no binding”, the Kd [5] is reported as 27300 nM and the Kd [9] is reported as 20300 nM.

B11: 43-8 synTF with appended erbin ligand E1 (WLVTWV) (other, not shown: large carriers)
chain: GEAPFQCRICMANFSRQDRLDRHTRTHTGEKPFQCRICMANFSQKEHLAGHLRTHTGEKPFQCRICMANFSRRDNLNRHLKTHLRGSGSGWLVTWV
With B11 the Kd [4] was 100 nM and the binding result [7] was “no binding”.

B12: MBP-43-8(low)-syn. lig. (S2) (other, not shown: large carriers)
chain: GEAPFQCRICMANFSRQDRLDRHTRTHTGEKPFQCRICMANFSQKEHLAGHLRTHTGEKPFQCRICMANFSRRDNLNRHLKTHLRGSGSGIRETIL
notes: also called IRETIL; pCB381
For B12, the binding result [8] was “no binding” and the Kd [5] was 180 nM.

B13: 42-10 DBM6 (dsDNA)
DNA 1: AGACGCTGCTA
DNA 2: TAGCAGCGTCT
In the case of B13, the Kd [10] is reported as 218 nM.

B14: 42-10 DBM3 (dsDNA)
DNA 1: AGACGGTGCTC
DNA 2: GAGCACCGTCT
With B14 the Kd [10] was 32 nM.

B15: 42-10 DBM5 (dsDNA)
DNA 1: AGACGCTACTC
DNA 2: GAGTAGCGTCT
In the case of B15, the Kd [10] is reported as 95 nM.

B16: 43-8 DBM2 (dsDNA)
DNA 1: ACAGTGAGGAC
DNA 2: GTCCTCACTGT
With B16 the Kd [2] was 30 nM and the Kd [3] was 143 nM.

B17: 42-10 DBM7 (dsDNA)
DNA 1: AGACTCTGCTC
DNA 2: GAGCAGAGTCT
For B17, the Kd [10] was 415 nM.

B18: 42-10 DBM4 (dsDNA)
DNA 1: ACACGCTGCTC
DNA 2: GAGCAGCGTGT
Molecule B18 has a Kd [10] of 67 nM.

B19: 42-10 DBM2 (dsDNA)
DNA 1: TGACGCTGCTT
DNA 2: AAGCAGCGTCA
Molecule B19 has a Kd [10] of 5.2 nM and a Kd [11] of 0.94 nM.

B20: 43-8 nc=2 probe (dsDNA)
DNA 1: GAATTCGTCCTCACTCTTCGGTCCTCACTCTGGATCC
DNA 2: GGATCCAGAGTGAGGACCGAAGAGTGAGGACGAATTC
B20 gave an EC50 [12] of 210 nM.
